Assay [1] has as its target human FcγR CD16a V158-GST fusion protein (human, UniProt P08637 17-208). The experiment in a line: ALPHAscreen competition. Background: Alpha assays give light when donor and acceptor beads are brought close together.
Assay [2] addresses T1, human FcγR CD32a R131-GST fusion protein (human, UniProt P12318 34-217).
T1 chain: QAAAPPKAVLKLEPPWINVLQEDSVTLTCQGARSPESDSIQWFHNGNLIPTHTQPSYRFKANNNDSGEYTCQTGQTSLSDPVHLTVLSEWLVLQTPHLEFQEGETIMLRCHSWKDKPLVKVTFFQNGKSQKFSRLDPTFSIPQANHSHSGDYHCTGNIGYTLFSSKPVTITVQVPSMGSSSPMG
The experiment in a line: ALPHAscreen competition.

The target of assay [3] is T2, human FcγR CD64-GST fusion protein (human, UniProt P12314 16-292).
T2 chain: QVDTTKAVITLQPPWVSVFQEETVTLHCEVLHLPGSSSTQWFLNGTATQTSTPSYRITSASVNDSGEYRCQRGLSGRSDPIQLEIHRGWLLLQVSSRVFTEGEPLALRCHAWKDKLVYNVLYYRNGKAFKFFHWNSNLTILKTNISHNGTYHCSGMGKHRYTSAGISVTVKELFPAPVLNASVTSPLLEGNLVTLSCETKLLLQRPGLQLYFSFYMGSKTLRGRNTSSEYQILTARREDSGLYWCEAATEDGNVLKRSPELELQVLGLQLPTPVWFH
Briefly: ALPHAscreen competition.

In assay [4] the target is T3, human FcγR CD32b-GST fusion protein (human, UniProt P31994 43-217).
T3 chain: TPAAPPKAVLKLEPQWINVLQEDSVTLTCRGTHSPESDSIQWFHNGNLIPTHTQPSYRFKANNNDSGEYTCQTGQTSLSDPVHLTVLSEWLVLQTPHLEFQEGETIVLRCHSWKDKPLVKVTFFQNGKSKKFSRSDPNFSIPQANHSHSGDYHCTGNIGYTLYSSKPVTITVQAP
The experiment in a line: ALPHAscreen competition.

Assay [5] concerns the target T4, rhesus monkey CD40 (cell surface) (rhesus monkey, UniProt F6SNI1 21-278).
T4 chain: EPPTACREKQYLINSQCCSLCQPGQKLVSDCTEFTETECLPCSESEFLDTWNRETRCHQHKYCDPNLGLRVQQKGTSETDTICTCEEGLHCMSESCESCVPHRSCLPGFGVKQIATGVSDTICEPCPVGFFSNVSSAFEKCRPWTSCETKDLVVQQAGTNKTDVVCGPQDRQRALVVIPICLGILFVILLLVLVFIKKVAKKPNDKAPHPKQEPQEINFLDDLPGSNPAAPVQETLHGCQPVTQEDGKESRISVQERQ
Briefly: flow cytometry, CHO-CD40; avid.

Assay [6] deals with T5, human CD40 (cell surface) (UniProt P25942 20-277). Briefly: flow cytometry, CHO-CD40; avid. (A flow cytometer gives signals particle by particle.)
The target in assay [7] is T6, cynomolgus monkey CD40 (cell surface).
T6 chain: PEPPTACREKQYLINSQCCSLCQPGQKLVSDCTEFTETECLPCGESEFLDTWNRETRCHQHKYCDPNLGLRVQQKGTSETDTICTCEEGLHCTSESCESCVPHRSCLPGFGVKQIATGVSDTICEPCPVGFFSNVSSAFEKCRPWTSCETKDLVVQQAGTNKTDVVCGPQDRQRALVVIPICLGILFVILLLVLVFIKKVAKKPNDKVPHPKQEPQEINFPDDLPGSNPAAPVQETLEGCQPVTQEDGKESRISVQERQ
Briefly: flow cytometry, CHO-CD40; avid.

The target of assay [8] is T5, human CD40 (cell surface). Briefly: flow cytometry; 4-P fit parameter C.
The target of assay [9] is T5, human CD40 (cell surface). Briefly: flow cytometry, B cells in whole blood; A647-conjugated.
In assay [10] the target is T5, human CD40 (cell surface). The experiment in a line: flow cytometry, B cells in whole blood; geometric mean, A647-conjugated.
Assay [11] addresses T6, cynomolgus monkey CD40 (cell surface). The description is as above.

The values that follow come from patent publication US20170233485A1 (published 2017).

What is called IC50 is the concentration that inhibits the measured activity by half. What is called EC50 is the concentration giving half of the maximal effect.

Sequence of human FcγR CD16a V158-GST fusion protein (P08637 17-208 F176V): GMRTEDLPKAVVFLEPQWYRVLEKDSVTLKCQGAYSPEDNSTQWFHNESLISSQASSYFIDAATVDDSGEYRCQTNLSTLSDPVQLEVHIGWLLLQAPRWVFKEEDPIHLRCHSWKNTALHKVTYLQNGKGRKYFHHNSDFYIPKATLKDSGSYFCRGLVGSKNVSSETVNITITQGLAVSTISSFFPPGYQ

B1: Exemplary Anti-CD40 Antibody 1 (antibody)
heavy: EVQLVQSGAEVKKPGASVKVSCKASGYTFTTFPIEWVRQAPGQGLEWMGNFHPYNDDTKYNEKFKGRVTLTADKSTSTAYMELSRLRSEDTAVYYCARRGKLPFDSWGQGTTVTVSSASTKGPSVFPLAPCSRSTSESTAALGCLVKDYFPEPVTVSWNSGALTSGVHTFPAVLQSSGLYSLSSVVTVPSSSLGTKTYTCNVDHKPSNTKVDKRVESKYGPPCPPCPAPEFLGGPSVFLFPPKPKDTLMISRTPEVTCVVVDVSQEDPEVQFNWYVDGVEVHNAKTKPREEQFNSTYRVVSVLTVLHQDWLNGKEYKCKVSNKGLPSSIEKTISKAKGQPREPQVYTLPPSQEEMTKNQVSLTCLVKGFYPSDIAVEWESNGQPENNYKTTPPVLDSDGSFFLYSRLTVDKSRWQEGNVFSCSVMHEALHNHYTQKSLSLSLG
light: DIQMTQSPSSLSASVGDRVTISCRASQDISNYLNWYQQKPGKVPKLLIYFTSRLRSGVPSRFSGSGSGTDYTLTISSLQPEDVATYYCQQDRKLPWTFGQGTKLEIKRTVAAPSVFIFPPSDEQLKSGTASVVCLLNNFYPREAKVQWKVDNALQSGNSQESVTEQDSKDSTYSLSSTLTLSKADYEKHKVYACEVTHQGLSSPVTKSFNRGEC
modifications: Alexa647 conjugate in some whole-blood assays; N-linked glycan on the heavy chain; neither is carried by the letters.
B1: the IC50 in [1] was found to be 680 µg/mL; in assay [2], 118 µg/mL; in assay [3], 14.7 µg/mL; in assay [4] it was 282 µg/mL.

B2: Agly hAKH3 IgG4P/IgG1 (antibody, V domains shown)
VH: EVQLVQSGAEVKKPGASVKVSCKASGYTFTTFPIEWVRQAPGQGLEWMGNFHPYNDDTKYNEKFKGRVTLTADKSTSTAYMELSRLRSEDTAVYYCARRGKLPFDSWGQGTTVTVSS
VL: DIQMTQSPSSLSASVGDRVTISCRASQDISNYLNWYQQKPGKVPKLLIYFTSRLRSGVPSRFSGSGSGTDYTLTISSLQPEDVATYYCQQDRKLPWTFGQGTKLEIK
As for B2, the concentration for a half-maximal effect (EC50) in assay [5] was found to be 0.249 µg/mL; in [6], 0.0895 µg/mL; in assay [7] it was 0.131 µg/mL; in assay [8], 0.0804 µg/mL; in [9] it was 0.0777 µg/mL; in [10], 0.0626 µg/mL. The EC50 in assay [11] was determined as 0.109 µg/mL.
